This passage reports Km and kcat results from publication PMC7540478.

Substrate in data set [1]: O=P(O)(O)O[C@H]1O[C@H](CO)[C@@H](O)[C@H](O)[C@H]1O
The data set can be described thus: purified protein. The settings on record: 2 M glycerol as acceptor, 50 mM MES pH 7.0, 30 °C.

Substrate in data set [2]: OC[C@H]1O[C@@](CO)(O[C@H]2O[C@H](CO)[C@@H](O)[C@H](O)[C@H]2O)[C@@H](O)[C@@H]1O
The data set is described as follows: purified protein. The settings on record: 2 M glycerol as acceptor, 50 mM MES pH 7.0, 30 °C.

B1: LmSucP (Leuconostoc mesenteroides) (protein)
chain: MEIQNKAMLITYADSLGKNLKDVHQVLKEDIGDAIGGVHLLPFFPSTGDRGFAPADYTRVDAAFGDWADVEALGEEYYLMFDFMINHISRESVMYQDFKKNHDDSKYKDFFIRWEKFWAKAGENRPTQADVDLIYKRKDKAPTQEITFDDGTTENLWNTFGEEQIDIDVNSAIAKEFIKTTLEDMVKHGANLIRLDAFAYAVKKVDTNDFFVEPEIWDTLNEVREILTPLKAEILPEIHEHYSIPKKINDHGYFTYDFALPMTTLYTLYSGKTNQLAKWLKMSPMKQFTTLDTHDGIGVVDARDILTDDEIDYASEQLYKVGANVKKTYSSASYNNLDIYQINSTYYSALGNDDAAYLLSRVFQVFAPGIPQIYYVGLLAGENDIALLESTKEGRNINRHYYTREEVKSEVKRPVVANLLKLLSWRNESPAFDLAGSITVDTPTDTTIVVTRQDENGQNKAVLTADAANKTFEIVENGQTVMSSDNLTQN
As to B1, in the data set “purified protein [1]”, the Km (usually the concentration of substrate that gives half-maximal velocity) came to 12.5 ± 1.7 mM; the kcat (in general, the number of substrate molecules converted per active site and unit of time at saturation) came to 36 ± 3 s⁻¹. For the same protein, in the data set “purified protein [2]”, the Michaelis constant (Km) was 1.4 ± 0.1 mM.
